Reference: patent publication US5817490A, “Enzymatic process for the manufacture of ascorbic acid 2-keto-L-gulonic acid and esters of 2-keto-L-gulonic acid” (Eastman Chemical Company, priority 1997, dated 1998)
Where two headings read alike, the source gives them in different places.

How the values were obtained:
[1] = format: physicochemical
Method: HPLC sample standards were prepared by dissolving KLG, MeKLG, ascorbic acid (ASA), and butyl-KLG to the appropriate concentration in water. Samples of these standards were placed in filled and sealed vials, stored at room temperature, and analyzed periodically. The HPLC was calibrated on the area response for standards that were injected onto the HPLC as soon as possible after the preparation of the standards.

[2] = solubility of butyl-KLG in water; format: physicochemical
Excerpt: The recrystallized butyl-KLG of this example had satisfactory proton and carbon NMR spectra and gave the predicted molecular weight by field desorption mass spectrometry.

[3] = enzyme screen for hydrolysis/methanolysis of butyl-KLG (HPLC of products and remaining substrate); format: biochemical; design: KLG formed / MeKLG formed / ASA formed / BuKLG (remaining substrate): unit: ppm
Method: (§1) Initial enzyme screens were carried out as follows. Enzyme (typically 10 mg), aqueous buffer (typically 860 microliters (ul) or 550 ul), aqueous 0.2M CaCl2 (10 ul), methanol (typically 90 ul or 400 ul), and an aqueous solution of substrate (typically 90 ul of butyl-KLG at a typical concentration of 110,000 ppm) were added to a 2 ml polypropylene centrifuge tube. The resulting solution was vortexed briefly and placed on a shaker bath at 300 rpm at 38° C. (typically for 18 hours or more). After incubation, samples were centrifuged at 14,000 G's (14,000 times gravity) for 20 minutes to remove enzyme, sampled (300 ul), and diluted to one milliliter with distilled water. If not analyzed by HPLC within the day, samples were frozen prior to analysis.
The data were reported in terms of parts per million of KLG, MeKLG, ascorbic acid (ASA) and butyl-KLG. […] Samples labeled as "no enzyme" were controls within a given run. The controls contained substrate but no enzyme and thus represented experimental and HPLC background data.

[4] = enzyme screen for methanolysis of KLG; format: biochemical; design: unit not given here; settings: Table 14: 38° C., 19 Hours, 8.6% Methanol-Water, 0.2M MES Buffer
Method: as §1

[5] = Example 4: 38% methanol-water, MES, pH 5 to 5.8
[6] = Example 8: 8.6% methanol-water, MES, pH approximately 5.8 to 6.2
[7] = Example 9: 8.6% methanol-water, 0.2M MES
[8] = Table 3: 38° C., 16 Hours, 38% Methanol-Water, 0.1M MES Buffer
[9] = Table 4: 38° C., 47.5 Hours, 38% Methanol-Water, 0.1M MES Buffer
[10] = Table 7: 38° C., 19 Hours, 8.6% Methanol-Water, 0.1M MES
[11] = Table 8: 38° C., 21 Hours, 8.6% Methanol-Water, 0.2 M MES
[12] = Table 9: 38° C., 19 Hours, 8.6% Methanol-Water, 0.2M MES Buffer
[13] = Table 10: 38° C., 19 Hours, 38% Methanol-Water, 0.2M MES Buffer
[14] = Table 11: 38° C., ca. 19 Hours, 8.6% Methanol-Water, 0.2M Pyridine/Pyridinium Hydrochloride
[15] = Table 12: 38° C., ca. 19 Hours, 38% Methanol-Water, 0.2M pyridine buffer, pH 4.7 to 5.1
[16] = Table 13: 38° C., 20 Hours, 8.6% Methanol-Water, pH 2.3, 0.2M Phosphate Buffer

In the case of `O=C(O)C(=O)[C@@H](O)[C@H](O)[C@@H](O)CO` [KLG, 2-keto-L-gulonic acid], the “Amount Found” value ([1]; 50 ppm standard, 0 minutes) is reported as 51 ppm, the “Amount Found” value ([1]; 50 ppm standard, 400 minutes) is reported as 39.9 ppm and the “Amount Found” value ([1]; 50 ppm standard, 715 minutes) is reported as 52 ppm. The “Amount Found” value ([1]; 100 ppm standard, 0 minutes) was 102 ppm, the “Amount Found” value ([1]; 100 ppm standard, 400 minutes) was 94.3 ppm and the “Amount Found” value ([1]; 100 ppm standard, 715 minutes) was 81.8 ppm. For the same molecule, the “Amount Found” value ([1]; 500 ppm standard, 0 minutes) was 510 ppm, the “Amount Found” value ([1]; 500 ppm standard, 400 minutes) was 479 ppm and the “Amount Found” value ([1]; 500 ppm standard, 715 minutes) was 493 ppm.

With `COC(=O)C(=O)[C@@H](O)[C@H](O)[C@@H](O)CO` [MeKLG, methyl-2-keto-L-gulonate] the “Amount Found” value ([1]; 50 ppm standard, 0 minutes) was 51.4 ppm, the “Amount Found” value ([1]; 50 ppm standard, 400 minutes) was 47.7 ppm and the “Amount Found” value ([1]; 50 ppm standard, 715 minutes) was 43 ppm. The “Amount Found” value ([1]; 100 ppm standard, 0 minutes) was 103 ppm, the “Amount Found” value ([1]; 100 ppm standard, 400 minutes) was 106.8 ppm and the “Amount Found” value ([1]; 100 ppm standard, 715 minutes) was 90.2 ppm. For the same molecule, the “Amount Found” value ([1]; 500 ppm standard, 0 minutes) was 514 ppm, the “Amount Found” value ([1]; 500 ppm standard, 400 minutes) was 496 ppm and the “Amount Found” value ([1]; 500 ppm standard, 715 minutes) was 495 ppm.

For `CCCCOC(=O)C(=O)[C@@H](O)[C@H](O)[C@@H](O)CO` [butyl-KLG, butyl 2-keto-L-gulonate], the solubility [2] was ≥ 500 mg/mL, the “Amount Found” value ([1]; 50 ppm standard, 0 minutes) was 50.6 ppm and the “Amount Found” value ([1]; 50 ppm standard, 400 minutes) was 42.7 ppm. For the same molecule, the “Amount Found” value ([1]; 50 ppm standard, 715 minutes) was 38.2 ppm, the “Amount Found” value ([1]; 100 ppm standard, 0 minutes) was 101 ppm and the “Amount Found” value ([1]; 100 ppm standard, 400 minutes) was 100.1 ppm. The “Amount Found” value ([1]; 100 ppm standard, 715 minutes) was 94.2 ppm, the “Amount Found” value ([1]; 500 ppm standard, 0 minutes) was 506 ppm and the “Amount Found” value ([1]; 500 ppm standard, 400 minutes) was 512 ppm. The “Amount Found” value ([1]; 500 ppm standard, 715 minutes) was 499 ppm.

B1: Pig Liver Esterase: pig liver esterase (a hydrolase) (protein)
chain: MWLLPLVLTSLASSATWAGQPASPPVVDTAQGRVLGKYVSLEGLAFTQPVAVFLGVPFAKPPLGSLRFAPPQPAEPWSFVKNTTSYPPMCCQDPVVEQMTSDLFTNFTGKERLTLEFSEDCLYLNIYTPADLTKRGRLPVMVWIHGGGLVLGGAPMYDGVVLAAHENFTVVVVAIQYRLGIWGFFSTGDEHSRGNWGHLDQVAALHWVQENIANFGGDPGSVTIFGESFTAGGESVSVLVLSPLAKNLFHRAISESGVALTVALVRKDMKAAAKQIAVLAGCKTTTSAVFTFVHCLRQKSEDELLDLTLKMKFLTLDFHGDQRESHPFLPTVVDGVLLPKMPEEILAEKDFTFNTVPYIVGINKQEFGWLLPTMMGFPLSEGKLDQKTATSLLWKSYPIANIPEELTPVATFTDKYLGGTDDPVKKKDLFLDLMGDVVFGVPSVTVARQHRDAGAPTYMYEFQYRPSFSSDKFTKPKTVIGDHGDEIFSVFGFPLLKGDAPEEEVSLSKTVMKFWANFARSGNPNGEGLPHWPFTMYDQEEGYLQIGVNTQAAKRLKGEEVAFWNDLLSKEAAKKPPKIKHAEL
With B1 the “levels of activity / conversion of butyl-KLG” value ([3]; Example 3: 38% methanol-water, MES, pH 4.8 to 5.8) was “particularly high levels of activity”, the “levels of activity / conversion of butyl-KLG” value [3, 5] was “particularly high levels of activity” and the “levels of activity / conversion of butyl-KLG” value ([3]; Example 7: 8.6% methanol-water, MES, pH approximately 5 to 6) was “particularly high levels of activity”. The “levels of activity / conversion of butyl-KLG” value [3, 6] was “particularly high levels of activity”, the “conversions to ascorbic acid” value [3, 7] was “significant conversions to ascorbic acid” and the “selectivity (transesterification)” value [3, 7] was “selectivity toward transesterification”. The “levels of activity / conversion of butyl-KLG” value ([3]; Example 9: 8.6% methanol-water, 0.2M MES, pH approximately 5.6 to 6) was “particularly high levels of activity”, the “levels of activity / conversion of butyl-KLG” value ([3]; Example 10: 38% methanol-water, 0.2M MES, pH approximately 5.6 to 6.2) was “Decreased, although still appreciable, activity” and the “levels of activity / conversion of butyl-KLG” value ([3]; Example 11: 8.6% methanol-water, pyridine buffer, pH approximately 4.9 to 5.3) was “particularly high levels of activity”. For the same molecule, the ASA formed [3, 8] was 294 ppm, the “BuKLG (remaining substrate)” value [3, 8] was 5711 ppm and the KLG formed [3, 8] was 446 ppm. For the same molecule, the MeKLG formed [3, 8] was 4377 ppm, the ASA formed [3, 9] was 246 ppm and the “BuKLG (remaining substrate)” value [3, 9] was 1368 ppm. The KLG formed [3, 9] was 705 ppm, the MeKLG formed [3, 9] was 2720 ppm and the ASA formed [3, 10] was 423. The “BuKLG (remaining substrate)” value [3, 10] was 10, the KLG formed [3, 10] was 2726 and the MeKLG formed [3, 10] was 3731. The ASA formed [3, 11] was 717 ppm, the “BuKLG (remaining substrate)” value [3, 11] was 83 ppm and the KLG formed [3, 11] was 2373 ppm. The MeKLG formed [3, 11] was 4167 ppm, the ASA formed [3, 12] was 650 ppm and the “BuKLG (remaining substrate)” value [3, 12] was 0 ppm. The KLG formed [3, 12] was 1947 ppm, the MeKLG formed [3, 12] was 4258 ppm and the ASA formed [3, 13] was 173 ppm. For the same molecule, the “BuKLG (remaining substrate)” value [3, 13] was 7030 ppm, the KLG formed [3, 13] was 203 ppm and the MeKLG formed [3, 13] was 1654 ppm. For the same molecule, the ASA formed [3, 14] was 37 ppm, the “BuKLG (remaining substrate)” value [3, 14] was 390 ppm and the KLG formed [3, 14] was 1613 ppm. The MeKLG formed [3, 14] was 5787 ppm, the ASA formed [3, 15] was 0 and the “BuKLG (remaining substrate)” value [3, 15] was 11750. It also gave a KLG formed [3, 15] of 47, a MeKLG formed [3, 15] of 197 and an ASA formed [3, 16] of 0. The “BuKLG (remaining substrate)” value [3, 16] was 9500, the KLG formed [3, 16] was 417 and the MeKLG formed [3, 16] was 93. The ASA formed [4] was 0, the BuKLG [4] was 0 and the “KLG (remaining substrate)” value [4] was 4393. It also gave a MeKLG formed [4] of 0.

B2: ChiroCLEC-BL (Dry): crystalline crosslinked enzyme, a crystalline form of Subtilisin (a protease) (Altus Biologics) (protein, UniProt P00780 106-379, looked up)
Subtilisin Carlsberg: AQTVPYGIPLIKADKVQAQGFKGANVKVAVLDTGIQASHPDLNVVGGASFVAGEAYNTDGNGHGTHVAGTVAALDNTTGVLGVAPSVSLYAVKVLNSSGSGSYSGIVSGIEWATTNGMDVINMSLGGASGSTAMKQAVDNAYAKGVVVVAAAGNSGSSGNTNTIGYPAKYDSVIAVGAVDSNSNRASFSSVGAELEVMAPGAGVYSTYPTNTYATLNGTSMASPHVAGAAALILSKHPNLSASQVRNRLSSTATYLGSSFYYGKGLINVEAAAQ
modifications: crystalline cross-linked enzyme
With B2 the “levels of activity / conversion of butyl-KLG” value [3, 5] was “particularly high levels of activity”, the “levels of activity / conversion of butyl-KLG” value [3, 6] was “particularly high levels of activity” and the ASA formed [3, 8] was 3 ppm. The “BuKLG (remaining substrate)” value [3, 8] was 5123 ppm, the KLG formed [3, 8] was 194 ppm and the MeKLG formed [3, 8] was 642 ppm. For the same molecule, the ASA formed [3, 9] was 54 ppm, the “BuKLG (remaining substrate)” value [3, 9] was 634 ppm and the KLG formed [3, 9] was 3744 ppm. For the same molecule, the MeKLG formed [3, 9] was 1724 ppm, the ASA formed [3, 10] was 135 and the “BuKLG (remaining substrate)” value [3, 10] was 4051. The KLG formed [3, 10] was 2860, the MeKLG formed [3, 10] was 1233 and the ASA formed [3, 11] was 6 ppm. For the same molecule, the “BuKLG (remaining substrate)” value [3, 11] was 1376 ppm, the KLG formed [3, 11] was 4293 ppm and the MeKLG formed [3, 11] was 1282 ppm. For the same molecule, the ASA formed [3, 12] was 215 ppm, the “BuKLG (remaining substrate)” value [3, 12] was 3045 ppm and the KLG formed [3, 12] was 3485 ppm. For the same molecule, the MeKLG formed [3, 12] was 1235 ppm, the ASA formed [3, 13] was 102 ppm and the “BuKLG (remaining substrate)” value [3, 13] was 5572 ppm. It also gave a KLG formed [3, 13] of 1261 ppm, a MeKLG formed [3, 13] of 1693 ppm and an ASA formed [3, 14] of 67 ppm. The “BuKLG (remaining substrate)” value [3, 14] was 5603 ppm, the KLG formed [3, 14] was 987 ppm and the MeKLG formed [3, 14] was 1360 ppm. The ASA formed [3, 15] was 7, the “BuKLG (remaining substrate)” value [3, 15] was 10950 and the KLG formed [3, 15] was 97. For the same molecule, the MeKLG formed [3, 15] was 447, the ASA formed [3, 16] was 0 and the “BuKLG (remaining substrate)” value [3, 16] was 10580. It also gave a KLG formed [3, 16] of 387, a MeKLG formed [3, 16] of 0 and an ASA formed [4] of 0. For the same molecule, the BuKLG [4] was 0, the “KLG (remaining substrate)” value [4] was 3270 and the MeKLG formed [4] was 0.
